Test results reported in the supplement of paper PMC12667976.

B1: library; numbered along this chain (parent)
chain: MATDAALRRLLRLHRTEIAVAVDSAFPLLHALADHDVVPEDKFQETLHLKEKEGCPQAFHALLSWLLTQDSTAILDFWRVLFKDYNLERYGRLQPILDSFPKDVDLSQPRKGRKPPAVPKALVPPPRLPTKRKASEEARAAAPAALTPRGTASPGSQLKAKPPKKPESSAEQQRLPLGNGIQTMSASVQRAVAMSSGDVPGARGAVEGILIQQVFESGGSKKCIQVGGEFYTPSKFEDSGSGKNKARSSSGPKPLVRAKGAQGAAPGGGEARLGQQGSVPAPLALPSDPQLHQKNEDECAVCRDGGELICCDGCPRAFHLACLSPPLREIPSGTWRCSSCLQATVQEVQPRAEEPRPQEPPVETPLPPGLRSAGEEVRGPPGEPLAGMDTTLVYKHLPAPPSAAPLPGLDSSALHPLLCVGPEGQQNLAPGARCGVCGDGTDVLRCTHCAAAFHWRCHFPAGTSRPGTGLRCRSCSGDVTPAPVEGVLAPSPARLAPGPAKDDTASHEPALHRDDLESLLSEHTFDGILQWAIQSMARPAAPFPS

Variants of: B1
Assay: AIRE transcriptional activation functional score (insulin promoter-GFP; nonsense median 0, synonymous median 1) (normalised score); higher = higher AIRE activity (more reporter activation)
Conditions: with insulin promoter-GFP reporter in HEK293
In short: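 Integration of codon-optimized AIRE NNN-codon libraries (three regions) by Bxb1 recombinase was done in Flp-In T-REx HEK293 landing-pad cells containing an insulin core promoter-GFP reporter. Tile-sequencing covered the top 10% GFP cells and the unselected integrants, drawn from mCherry+, BFP− cells sorted at day 7 and grown 7 days. Functional score means the enrichment of a variant in select versus non-select, minus that of wild type. Variants with at least 10 counts per million in non-select were rescaled to nonsense median 0 and synonymous median 1, and the biological replicates were averaged.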

AIRE transcriptional activation functional score, by site and new letter:
E375: N 1.89; T 0.785; Y 1.51; R 1; I 1.08; A 1.18; G 0.999; D 1.04; F 1.55; Q 1.05; C 0.539; S 0.907; L 1.47; H 1.6; P 1.21; K 1.35; V 1.47
L370: S 1.32; W 0.504; Q 0.241; V 1.03; G 1.08; P 1.08; T 1.03; C 1.12; H 0.944; F 0.823; K 0.92; I 1.25; R 0.586; D 0.434; A 0.668; E -0.238
V377: E 1.81; D 0.248; K 0.952; C 1.32; G 1.16; T 1.37; F 1.15; Q 0.854; A 0.734; P 1.28; N 1.2; L 1.19; S 0.916; M 0.944; R 1.09; I 1.15; W 1.82
S372: H 1.13; R 1.16; E 1.3; I 0.653; D 1.06; A 1.16; L 0.938; Y 1.25; P 1.07; G 0.89; N 1.2; C 1.31; W 1.62; K 1.48; F 1.02; V 1.33; T 0.951
P367: W 1.97; Y 1.39; S 1.13; M 0.302; V 0.854; K 1.04; N 0.956; R 1.06; T 1.17; L 0.763; Q 1.26
G374: F 2.03; V 1.07; L 1.29; I 1.18; Y 0.519; A 1.33; H 0.816; P 1.1; S 1.24; R 1.31; K 0.524; C 1.55; W 1.65; D 0.16; T 0.972
R371: T 0.753; I 0.173; M -0.128; D 1; G 1.55; W 1.77; Y 1.39; L 1.5; V 1.27; P 0.614; S 0.653
E376: N 1.32; R 1.12; T 0.984; L 1.17; W 1.23; P 1.25; D 0.34; Y 0.702; F 0.443; A 0.899; S 1.08; G 0.776; Q 1.62; H 1.36; I 1.36; K 1.15; V 1.24
A373: T 1.63; W -0.241; G 0.987; K 1.02; D 1.02; H 1.23; E 1.28; L 0.776; R 0.736; V 0.766; S 0.969; P 1.13; I 0.836; F 0.264
G369: W 0.914; N 1.1; I 1.18; T 0.912; Y 0.617; C 1.25; Q 1.43; K 1.35; A 0.861; V 0.854; F 1.46; L 1.46; E 1.68; R 0.772; S 0.939; D -0.344
P368: F 1.63; I 1.29; C 1.55; K 1.38; G 1.05; H 1.18; R 1.04; L 1.01; D 0.975; A 1.2; Q 0.776; T 0.983; S 1.27; E 0.965; V 1.13; N 1.58
